Ends that are not written are not given here.
B1: wild‐type SERF2 (natural protein)
chain: MTRGNQRELARQKNMKKQSDSVKGKRRDDGLSAAARKQRDSEIMQQKQKKANEKKEEPK
B2: Asyn Med peptide (GKNEEGAPQEGI) of alpha‐synuclein, carboxyfluorescein-labeled (peptide)
peptide: GKNEEGAPQEGI
modifications: also: 5(6)-carboxyfluorescein label, site not given here
B3: Asyn top peptide (YEMPSEEGYQDY) of alpha‐synuclein, carboxyfluorescein-labeled (peptide)
peptide: YEMPSEEGYQDY
modifications: also: 5(6)-carboxyfluorescein label, site not given here
B4: SERF2 KR mutant (natural protein)
chain: MTRGNQRELARQKNMRRQSDSVRGKRRDDGLSAAARKQRDSEIMQQKQKKANEKKEEPK
B5: Asyn worst peptide (MDVFMKGLSKAK) of alpha‐synuclein, carboxyfluorescein-labeled (peptide)
peptide: MDVFMKGLSKAK
modifications: also: 5(6)-carboxyfluorescein label, site not given here

Experiments:
Assay in all cases: MST
[1] = molecular target: amyloid beta peptide (strongest wild‐type SERF2 binding peptide from amyloid beta), carboxyfluorescein-labeled (human)
[2] = molecular target: T1, wild‐type SERF2 (human, UniProt P84101-1 1-59)
T1 sequence: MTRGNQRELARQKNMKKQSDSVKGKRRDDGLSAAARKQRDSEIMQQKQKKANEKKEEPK

[3] = molecular target: B2
[4] = molecular target: B5
[5] = molecular target: B3

Binder	Kd [1] [µM]	binding result [2]	other results
B1	9.6	–	–
B2	–	binds	–
B3	–	–	Kd [2]: 3 µM
B4	6.6	–	binding result [3]: binds; binding result [4]: binds; Kd [5]: 2.6 µM
B5	–	binds	–
